# In patent CN117007808A:
# B1: 非洲猪瘟病毒CD2v蛋白单克隆抗体5G8 (antibody, V domains shown)
# VH: YDHDYAKLGTELGSTSNGRQCAGIALTSRMKLWLNWVKQSHGKSLEWIGVIDPNNGGTTYNQKFKGKATLTVDKSSSTAYMEVRSLTSEYSAVYYCARYGKGIGLDYWGQGTSVTVSS
# VL: DVVMTQTPLSLPVSLGDQASISCRSSQSLVHRNGNTYLHWYLQKPGQSPKLLIYKVSNRFSGVPDRFSGSGSGTDFTLKISRVEAVDLGVYFCSQSTHVPWTFGGGTKLEIK
# Target: 融合蛋白gD-CD2v (猪伪狂犬病病毒 PRV HN1201; 非洲猪瘟病毒 ASFV SY18)
binder,measurement,value
B1,阻断率,91 %
